The values that follow come from article PMC8835902, “DNA Polymerase-Parental DNA Interaction Is Essential for Helicase-Polymerase Coupling during Bacteriophage T7 DNA Replication”.

Where a chain is given by its changes, count along the chain named.

The target in data set [1] is WTgp5 (T7 DNA polymerase, exo-);thioredoxin (trx) (bacteriophage T7;Escherichia coli?, UniProt P00581;P0AA25 1-704;1-109, D5A;E7A|). Nature of the data set: EMSA; 20 mM Hepes pH 7.5, 1 mM EDTA, 100 mM KCl, 0.1 mM bME, 5% glycerol, 0.10 mg/mL BSA, 10 nM DNA, 25 C (30 min; 15 min + 15 min for supershift). As to conditions: protein: recombinant;recombinant, tags: ;, copies: 1;1, label: 5' Cy5 on primer. On the technique in general: Mobility shift assays separate free from complexed probe on a gel.

Data set [2] addresses T1, WAgp5;thioredoxin (trx) (bacteriophage T7;Escherichia coli?, UniProt P00581;P0AA25 1-704;1-109, D5A;E7A;W579A|). Nature of the data set: EMSA; similar to WTgp5; 20 mM Hepes pH 7.5, 1 mM EDTA, 100 mM KCl, 0.1 mM bME, 5% glycerol, 0.10 mg/mL BSA, 10 nM DNA, 25 C (30 min; 15 min + 15 min for supershift). The note with it: protein: recombinant;recombinant; tags: ;; copies: 1;1; label: 5' Cy5 on primer; primer-template, 26 bp duplex, 32 nt 5' template overhang.

Data set [3] concerns the target T1, WAgp5;thioredoxin (trx). Nature of the data set: EMSA; 1 and 0 gap affinities similar; 20 mM Hepes pH 7.5, 1 mM EDTA, 100 mM KCl, 0.1 mM bME, 5% glycerol, 0.10 mg/mL BSA, 10 nM DNA, 25 C (30 min; 15 min + 15 min for supershift). As to conditions: protein: recombinant;recombinant, tags: ;, copies: 1;1, label: 5' Cy5 on primer.
In data set [4] the target is EQgp4 (T7 helicase);K3Dgp5;thioredoxin (trx) (bacteriophage T7;bacteriophage …, UniProt P03692;P00581;P0AA25 1-566;1-704;1-109, E343Q|D5A;E7A;K545D;K549D;K553D|). The data set can be described thus: EMSA; K3Dgp5-trx stimulates EQgp4 binding; 20 mM Hepes pH 7.5, 1 mM EDTA, 100 mM KCl, 0.1 mM bME, 5% glycerol, 0.10 mg/mL BSA, 10 nM DNA, 25 C (30 min; 15 min + 15 min for supershift). The note with it: protein: recombinant;recombinant;recombinant; tags: His tag removed (PreScission);;; chain copies: 6;1;1; label: 5' Cy5 on primer; fork 1:2 2:3, 2 nt ssDNA gap between primer end and fork.

Data set [5] has as its target EQgp4 (T7 helicase);WTgp5 (T7 DNA polymerase, exo-);thioredoxin (trx) (bacteriophage T7;bacteriophage …, UniProt P03692;P00581;P0AA25 1-566;1-704;1-109, E343Q|D5A;E7A|). The data set can be described thus: EMSA; EQgp4 titrated onto DNA pre-bound to WTgp5-trx (60-100 nM); 20 mM Hepes pH 7.5, 1 mM EDTA, 100 mM KCl, 0.1 mM bME, 5% glycerol, 0.10 mg/mL BSA, 10 nM DNA, 25 C (30 min; 15 min + 15 min for supershift). As to conditions: protein: recombinant;recombinant;recombinant; tags: His tag removed (PreScission);;; chain copies: 6;1;1; label: 5' Cy5 on primer; fork 1:2 2:3, 2 nt ssDNA gap between primer end and fork.

The target in another data set is EQgp4 (T7 helicase) (bacteriophage T7, UniProt P03692 1-566, E343Q). The data set can be described thus: EMSA; dTTP; 20 mM Hepes pH 7.5, 1 mM EDTA, 100 mM KCl, 0.1 mM bME, 5% glycerol, 0.10 mg/mL BSA, 10 nM DNA, 25 C (30 min; 15 min + 15 min for supershift). The note with it: protein: recombinant; tags: His tag removed (PreScission); chain copies: 6; label: 5' Cy5 on primer; fork 1:2 2:3, 2 nt ssDNA gap between primer end and fork.

For the next data set, the target named is EQgp4deltaC (bacteriophage T7, UniProt P03692 1-549, E343Q). The data set can be described thus: EMSA; 20 mM Hepes pH 7.5, 1 mM EDTA, 100 mM KCl, 0.1 mM bME, 5% glycerol, 0.10 mg/mL BSA, 10 nM DNA, 25 C (30 min; 15 min + 15 min for supershift). As to conditions: protein: recombinant; tags: His tag removed (PreScission); chain copies: 6; label: 5' Cy5 on primer; fork 1:2 2:3, 2 nt ssDNA gap between primer end and fork.

B1: Linear template-58nt (dsDNA)
DNA 1: GGATTATTTACATTGGCAGATTCACC
DNA 2: TTATTAGTTATGATATTCATGTATAGTTATATGGTGAATCTGCCAATGTAAATAATCC
On to B1, for which the Kd (commonly a measure of binding affinity in units of concentration) in data set [1] (primer-template, 26 bp duplex, 32 nt 5' template overhang) is 53 nM. The binding result with WAgp5;thioredoxin (trx) [2] is listed as “binds”.

B2: Fork template 0gap (mixed)
DNA 1: GGATTATTTACATTGGCAGATTCACC
DNA 2: B1 DNA 2
DNA 3: TATTCATGTATAGTTATGTAGAGACCGAGATCCGCGCTGCCAGTCGGCAGAGCC
On to B2, for which the binding result in the data set with WAgp5;thioredoxin (trx) [3] (fork 1:2 2:3, no gap) is given as “binds”. In addition, the dissociation constant (Kd) in data set [1] (fork 1:2 2:3, no gap) came out at 110 nM.

B3: Fork template 2gap (mixed)
DNA 1: GGATTATTTACATTGGCAGATTCACC
DNA 2: B1 DNA 2
DNA 3: TATTCATGTATAGTTATGTAGAGTTCCGAGATCCGCGCTGCCAGTCGGCAGAGCC
Regarding B3, the binding result in data set [4] is given as “binds”. Moreover, the Kd was 8 nM in data set [5]; 24 nM in the data set with EQgp4 (T7 helicase); 36 nM in data set [1] (fork 1:2 2:3, 2 nt ssDNA gap between primer end and fork); 30 nM with EQgp4deltaC.

B4: Fork template 1gap (mixed)
DNA 1: GGATTATTTACATTGGCAGATTCACC
DNA 2: B1 DNA 2
DNA 3: B2 DNA 3 with A24T
On to B4, for which the binding result with WAgp5;thioredoxin (trx) [3] (fork 1:2 2:3, 1 nt ssDNA gap) is on record as “binds”. Also, the Kd in data set [1] (fork 1:2 2:3, 1 nt ssDNA gap) stood at 63 nM.
